First the molecules themselves.
B1: TMEM59 peptide (residues 268–280), wild type [modified: long spacer (Tds) at the N-terminal end, used for immobilisation; long spacer (Tds) at the N-terminal end, used for immobilisation] [not stated] / GST-HA-ATG16L1(231–607) … (parent)
chain 1: PLPVEQDDDIEVIVDETSDHTEETSPVRAISRAATKRLSQPAGGLLDSITNIFGRRSVSSFPVPQDNVDTHPGSGKEVRVPATALCVFDAHDGEVNAVQFSPGSRLLATGGMDRRVKLWEVFGEKCEFKGSLSGSNAGITSIEFDSAGSYLLAASNDFASRIWTVDDYRLRHTLTGHSGKVLSAKFLLDNARIVSGSHDRTLKLWDLRSKVCIKTVFAGSSCNDIVCTEQCVMSGHFDKKIRFWDIRSESIVREMELLGKITALDLNPERTELLSCSRDDLLKVIDLRTNAIKQTFSAPGFKCGSDWTRVVFSPDGSYVAAGSAEGSLYIWSVLTGKVEKVLSKQHSSSINAVAWSPSGSHVVSVDKGCKAVLWAQY
chain 2: YVPSEKLSIYGDL

The variants in the assay derive from B1. As to the kind of experiment: peptide microarray. The following applies: with GST-HA-ATG16L1(231–607) [human], parent: 100.

Consider chain 2 G11D, for which the percent of parent (ligand 800, 600, 400 nM) was found to be 146 % WT.
The same measure, in the same setting: to chain 2 G11N belongs 140 % WT.
Still for that read-out and setting: the result for chain 2 G11K reads 127 % WT.
On the same count and under the same terms, the result for chain 2 G11I reads 1 % WT.
Regarding chain 2 G11T, for the setting “ligand 800, 600, 400 nM”, the percent of parent was found to be 117 % WT.
Consider chain 2 G11E, for which, where the note is “ligand 800, 600, 400 nM”, the percent of parent stood at 129 % WT.
The same measure, in the same setting: the result for chain 2 G11V reads 13 % WT; that for chain 2 G11L, 17 % WT; that for chain 2 G11Q, 31 % WT.
Regarding chain 2 G11P, under “ligand 800, 600, 400 nM”, the percent of parent stood at 155 % WT.
Take chain 2 G11M: the percent of parent (ligand 800, 600, 400 nM) is 40 % WT.
The same measure, in the same setting: to chain 2 G11S belongs 103 % WT; to chain 2 G11H, 156 % WT; to chain 2 G11R, 62 % WT.
As to chain 2 G11A, where the note is “ligand 800, 600, 400 nM”, the percent of parent is 18 % WT.
Take chain 2 G11W: under “ligand 800, 600, 400 nM”, the percent of parent was 165 % WT.
Consider chain 2 G11Y, for which, for the setting “ligand 800, 600, 400 nM”, the percent of parent was determined as 150 % WT.
Same read-out and setting: the result for chain 2 G11F reads 43 % WT.
chain 2 S4A: the percent of parent (ligand 200, 50, 20 nM) came to 78 % WT and the percent of parent (ligand 800, 600, 400 nM) was determined as 73 % WT.
Consider chain 2 S4I, for which the percent of parent runs as follows: (ligand 200, 50, 20 nM) 176 % WT; (ligand 800, 600, 400 nM) 155 % WT.
In the same order, the values of chain 2 S4M are 31 % WT and 32 % WT.
In the same order, the values of chain 2 S4V are 156 % WT and 144 % WT.
As to chain 2 S4E, the percent of parent amounted to 38 % WT (ligand 200, 50, 20 nM) and 45 % WT (ligand 800, 600, 400 nM).
In the same order, the values of chain 2 S4Q are 88 % WT and 94 % WT.
For the variant chain 2 S4L, the percent of parent amounted to 163 % WT (ligand 200, 50, 20 nM) and 157 % WT (ligand 800, 600, 400 nM).
For chain 2 S4K, in that order: 262 % WT and 180 % WT.
For the variant chain 2 S4N, the percent of parent was determined as 38 % WT (ligand 200, 50, 20 nM) and 30 % WT (ligand 800, 600, 400 nM).
Take chain 2 S4R: the percent of parent is, setting by setting: (ligand 200, 50, 20 nM) 110 % WT; (ligand 800, 600, 400 nM) 110 % WT.
Regarding chain 2 S4T, the percent of parent (ligand 200, 50, 20 nM) amounted to 62 % WT and the percent of parent (ligand 800, 600, 400 nM) worked out at 69 % WT.
For the variant chain 2 S4D, the percent of parent was found to be 33 % WT (ligand 200, 50, 20 nM) and 29 % WT (ligand 800, 600, 400 nM).
In the same order, the values of chain 2 S4W are 352 % WT and 187 % WT.
For chain 2 S4H, in that order: 122 % WT and 106 % WT.
As to chain 2 S4G, the percent of parent worked out at 49 % WT (ligand 200, 50, 20 nM) and 64 % WT (ligand 800, 600, 400 nM).
For chain 2 S4P, in that order: 63 % WT and 65 % WT.
For chain 2 S4Y, in that order: 320 % WT and 188 % WT.
chain 2 S4F: the percent of parent runs as follows: (ligand 200, 50, 20 nM) 1 % WT; (ligand 800, 600, 400 nM) 1 % WT.
Turning to chain 2 V2P, the percent of parent is, setting by setting: (ligand 200, 50, 20 nM) 35 % WT; (ligand 800, 600, 400 nM) 41 % WT.
In the case of chain 2 V2S, the percent of parent is, setting by setting: (ligand 200, 50, 20 nM) 50 % WT; (ligand 800, 600, 400 nM) 56 % WT.
Turning to chain 2 V2G, the percent of parent by setting is: (ligand 200, 50, 20 nM) 73 % WT; (ligand 800, 600, 400 nM) 58 % WT.
chain 2 V2T: the percent of parent is, setting by setting: (ligand 200, 50, 20 nM) 33 % WT; (ligand 800, 600, 400 nM) 31 % WT.
On to chain 2 V2L, for which the percent of parent (ligand 200, 50, 20 nM) was 145 % WT and the percent of parent (ligand 800, 600, 400 nM) came out at 134 % WT.
Turning to chain 2 V2H, the percent of parent runs as follows: (ligand 200, 50, 20 nM) 55 % WT; (ligand 800, 600, 400 nM) 67 % WT.
As for chain 2 V2R, the percent of parent is 41 % WT (ligand 200, 50, 20 nM) and 47 % WT (ligand 800, 600, 400 nM).
With chain 2 V2K, the percent of parent (ligand 200, 50, 20 nM) is 101 % WT and the percent of parent (ligand 800, 600, 400 nM) was determined as 96 % WT.
In the same order, the values of chain 2 V2D are 13 % WT and 18 % WT.
In the same order, the values of chain 2 V2F are 250 % WT and 177 % WT.
For chain 2 V2Q, in that order: 12 % WT and 15 % WT.
In the case of chain 2 V2M, the percent of parent (ligand 200, 50, 20 nM) stood at 31 % WT and the percent of parent (ligand 800, 600, 400 nM) turned out to be 28 % WT.
In the case of chain 2 V2A, the percent of parent is, setting by setting: (ligand 200, 50, 20 nM) 47 % WT; (ligand 800, 600, 400 nM) 50 % WT.
In the same order, the values of chain 2 V2W are 118 % WT and 119 % WT.
In the same order, the values of chain 2 V2I are 96 % WT and 99 % WT.
On to chain 2 V2E, for which the percent of parent was 9 % WT (ligand 200, 50, 20 nM) and 11 % WT (ligand 800, 600, 400 nM).
For chain 2 V2Y, in that order: 80 % WT and 90 % WT.
For chain 2 V2N, in that order: 19 % WT and 25 % WT.
On to chain 2 E5H, for which the percent of parent (ligand 200, 50, 20 nM) came to 303 % WT and the percent of parent (ligand 800, 600, 400 nM) stood at 183 % WT.
As to chain 2 E5T, the percent of parent runs as follows: (ligand 200, 50, 20 nM) 261 % WT; (ligand 800, 600, 400 nM) 179 % WT.
In the same order, the values of chain 2 E5S are 146 % WT and 135 % WT.
In the same order, the values of chain 2 E5K are 330 % WT and 186 % WT.
For chain 2 E5D, in that order: 123 % WT and 126 % WT.
With chain 2 E5R, the percent of parent by setting is: (ligand 200, 50, 20 nM) 224 % WT; (ligand 800, 600, 400 nM) 165 % WT.
For chain 2 E5F, in that order: 22 % WT and 29 % WT.
For chain 2 E5Q, in that order: 214 % WT and 167 % WT.
For chain 2 E5L, in that order: 42 % WT and 51 % WT.
Regarding chain 2 E5Y, the percent of parent is 158 % WT (ligand 200, 50, 20 nM) and 148 % WT (ligand 800, 600, 400 nM).
For chain 2 E5N, in that order: 269 % WT and 183 % WT.
In the same order, the values of chain 2 E5P are 92 % WT and 97 % WT.
For chain 2 E5G, in that order: 158 % WT and 142 % WT.
chain 2 E5W: the percent of parent reads like this: (ligand 200, 50, 20 nM) 105 % WT; (ligand 800, 600, 400 nM) 109 % WT.
In the same order, the values of chain 2 E5M are 217 % WT and 162 % WT.
In the case of chain 2 E5I, the percent of parent (ligand 200, 50, 20 nM) was determined as 27 % WT and the percent of parent (ligand 800, 600, 400 nM) was 32 % WT.
For the variant chain 2 E5A, the percent of parent was 86 % WT (ligand 200, 50, 20 nM) and 95 % WT (ligand 800, 600, 400 nM).
In the same order, the values of chain 2 E5V are 47 % WT and 52 % WT.
In the same order, the values of chain 2 P3L are 493 % WT and 189 % WT.
As to chain 2 P3I, the percent of parent reads like this: (ligand 200, 50, 20 nM) 343 % WT; (ligand 800, 600, 400 nM) 172 % WT.
In the same order, the values of chain 2 P3D are 104 % WT and 107 % WT.
Take chain 2 P3E: the percent of parent reads like this: (ligand 200, 50, 20 nM) 89 % WT; (ligand 800, 600, 400 nM) 86 % WT.
For the variant chain 2 P3R, the percent of parent worked out at 216 % WT (ligand 200, 50, 20 nM) and 131 % WT (ligand 800, 600, 400 nM).
In the same order, the values of chain 2 P3G are 143 % WT and 131 % WT.
For chain 2 P3W, in that order: 483 % WT and 188 % WT.
On to chain 2 P3K, for which the percent of parent (ligand 200, 50, 20 nM) was determined as 499 % WT and the percent of parent (ligand 800, 600, 400 nM) was determined as 181 % WT.
For chain 2 P3H, in that order: 225 % WT and 145 % WT.
In the case of chain 2 P3F, the percent of parent stood at 472 % WT (ligand 200, 50, 20 nM) and 168 % WT (ligand 800, 600, 400 nM).
In the same order, the values of chain 2 P3V are 334 % WT and 176 % WT.
In the same order, the values of chain 2 P3M are 435 % WT and 184 % WT.
In the same order, the values of chain 2 P3T are 518 % WT and 191 % WT.
On to chain 2 P3A, for which the percent of parent turned out to be 328 % WT (ligand 200, 50, 20 nM) and 168 % WT (ligand 800, 600, 400 nM).
On to chain 2 P3Y, for which the percent of parent runs as follows: (ligand 200, 50, 20 nM) 134 % WT; (ligand 800, 600, 400 nM) 104 % WT.
On to chain 2 P3Q, for which the percent of parent runs as follows: (ligand 200, 50, 20 nM) 254 % WT; (ligand 800, 600, 400 nM) 152 % WT.
In the same order, the values of chain 2 P3S are 184 % WT and 138 % WT.
For chain 2 P3N, in that order: 109 % WT and 110 % WT.
Take chain 2 S8V: the percent of parent (ligand 800, 600, 400 nM) was found to be 60 % WT.
On to chain 2 S8G, for which the percent of parent reads like this: (ligand 200, 50, 20 nM) 56 % WT; (ligand 800, 600, 400 nM) 57 % WT.
For chain 2 S8D, the percent of parent (ligand 200, 50, 20 nM) stood at 7 % WT and the percent of parent (ligand 800, 600, 400 nM) is 9 % WT.
In the same order, the values of chain 2 S8F are 175 % WT and 144 % WT.
chain 2 S8N: the percent of parent was determined as 126 % WT (ligand 200, 50, 20 nM) and 111 % WT (ligand 800, 600, 400 nM).
Take chain 2 S8M: the percent of parent worked out at 21 % WT (ligand 200, 50, 20 nM) and 27 % WT (ligand 800, 600, 400 nM).
Consider chain 2 S8K, for which the percent of parent (ligand 200, 50, 20 nM) turned out to be 158 % WT and the percent of parent (ligand 800, 600, 400 nM) is 144 % WT.
Turning to chain 2 S8Y, under “ligand 800, 600, 400 nM”, the percent of parent amounted to 137 % WT.
In the case of chain 2 S8Q, the percent of parent reads like this: (ligand 200, 50, 20 nM) 64 % WT; (ligand 800, 600, 400 nM) 113 % WT.
Regarding chain 2 S8E, the percent of parent is, setting by setting: (ligand 200, 50, 20 nM) 6 % WT; (ligand 800, 600, 400 nM) 11 % WT.
For chain 2 S8R, in that order: 113 % WT and 115 % WT.
On to chain 2 S8T, for which the percent of parent is 54 % WT (ligand 200, 50, 20 nM) and 67 % WT (ligand 800, 600, 400 nM).
For the variant chain 2 S8I, the percent of parent reads like this: (ligand 200, 50, 20 nM) 41 % WT; (ligand 800, 600, 400 nM) 51 % WT.
For chain 2 S8L, the percent of parent is 56 % WT (ligand 200, 50, 20 nM) and 74 % WT (ligand 800, 600, 400 nM).
